Measurements published in patent US20220380463A1 (Adimab, published 2022).

T1: Cynomolgus CD3εδ Fc heterodimer (Cy CD3ε Fc / CD3δ Fc-HIS) (cynomolgus, UniProt Q95LI8 22-100)
T1 chain 1: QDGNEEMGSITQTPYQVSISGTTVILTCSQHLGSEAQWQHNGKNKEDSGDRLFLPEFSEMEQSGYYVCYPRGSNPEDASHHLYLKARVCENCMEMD
T1 chain 2: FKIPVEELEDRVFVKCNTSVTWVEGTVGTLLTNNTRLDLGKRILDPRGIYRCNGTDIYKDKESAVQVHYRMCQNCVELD


Experiments:
[1] = biological target: T1, Cynomolgus CD3εδ Fc heterodimer (Cy …); assay: BLI (Octet), IgG on AHC sensor, pH 7.4
[2] = biological target: T1, Cynomolgus CD3εδ Fc heterodimer (Cy …); assay: BLI (Octet), IgG on AHC sensor, pH 6.0

Kd [1]	koff [1]	kon [1]	koff [2]	Binder
89.6 nM	0.0189 s⁻¹	210000 M⁻¹ s⁻¹	0.00174 s⁻¹	LAD9959_P01_E04 (ADI-57441) (antibody, V domains shown, IgG; also called Ab172) VH: QVQLVQSGAEVKKPGASVKVSCKASGFNIKDYYMHWVRQAPGQRLEWMGWIDLENANTIYDAKFQGRVTITRDTSASTAYMELSSLRSEDTAVYYCARDAYGRYFYDVWGQGTLVTVSS VL: DIVMTQSPDSLAVSLGERATINCKSSQSLLNARTHHNYLAWYQQKPGQPPKLLIYWASTRESGVPDRFSGSGSGTDFTLTISSLQAEDVAVYYCKQSYSRRTFGGGTKVEIK
4.71 nM	0.00146 s⁻¹	310000 M⁻¹ s⁻¹	0.000637 s⁻¹	LAD9964_P01_C07 (ADI-57444) (antibody, V domains shown) VH: QVQLVQSGAEVKKPGASVKVSCKASGFNIKDYYMHWVRQAPGQRLEWMGWIDLENANTIYDAKFQGRVTITRDTSASTAYMELSSLRSEDTAVYYCARDAYGRYFYDVWGQGTLVTVSS VL: DIVMTQSPDSLAVSLGERATINCKSSQSLLNARTHKNYLAWYQQKPGQPPKLLIYWASTRESGVPDRFSGSGSGTDFTLTISSLQAEDVAVYYCKQSYSRRTFGGGTKVEIK
